Patent US20240270821A1, “GIP/GLP1/GCG TRI-RECEPTOR AGONISTS AND USES THEREOF” (priority 2023, published 2024)
Starred links: 1 amine or outer side, 2 acyl side, 3 side chain; linkers in the order of their positions; H or OH if unused. Non-standard residues stand in square brackets, D forms with d. Groups on a side chain read outwards from the residue. No end group written: not given here. *: point of attachment. C20 diacid = O=C(O)CCCCCCCCCCCCCCCCCCC(=O)*; Phe(4-CN) = N#Cc1ccc(C[C@H](N)C(=O)O)cc1; αMePhe(2-F) = C[C@](N)(Cc1ccccc1F)C(=O)O; γGlu = O=C(O)[C@H](CCC(=O)[*:2])N[*:1]; αMeL = CC(C)C[C@](C)(N)C(=O)O; AEEA = NCCOCCOCC(=O)O; Aib = CC(C)(N)C(=O)O

T1: human GIP receptor (human) (UniProt P48546)
T1 sequence (looked up): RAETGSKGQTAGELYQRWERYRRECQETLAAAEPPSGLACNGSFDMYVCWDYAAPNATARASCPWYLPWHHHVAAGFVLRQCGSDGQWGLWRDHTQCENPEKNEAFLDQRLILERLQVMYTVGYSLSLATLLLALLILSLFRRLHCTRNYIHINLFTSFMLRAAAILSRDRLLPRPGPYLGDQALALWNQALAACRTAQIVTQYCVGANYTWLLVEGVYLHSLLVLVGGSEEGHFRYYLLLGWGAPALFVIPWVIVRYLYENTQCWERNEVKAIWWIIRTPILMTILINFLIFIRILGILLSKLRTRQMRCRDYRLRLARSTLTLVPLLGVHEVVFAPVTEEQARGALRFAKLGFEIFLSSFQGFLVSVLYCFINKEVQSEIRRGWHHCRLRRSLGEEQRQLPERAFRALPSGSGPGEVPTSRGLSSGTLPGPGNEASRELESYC

B1: Example 343 (peptide)
chain: YXQGTFTSDYSKXLDKKAQXAFVQWLLEGGPSSGEPPPSEG
modifications: not fully specified; synthetic construct; SITE 2: note = 2-Aminoisobutyric Acid; SITE 13: note = alpha-methyl-leucine; SITE 17: note = Lysine is chemically modified through conjugation of the epsilon-amino group of the Lysine side chain with (2-[2-(2-Amino-ethoxy)-ethoxy]-acetyl)-(gamma-Glu)-CO-(CH2) 18-CO2H; SITE 20: n
B2: Example 347 (peptide)
chain: YXQGTXTSDXSILLDKQAQKAFIEYLLEGGPSSGEPPPSEG
modifications: not fully specified; synthetic construct; SITE 2: note = 2-Aminoisobutyric Acid; SITE 6: note = alpha-methyl-2-fluoro-L-phenylalanine; SITE 10: note = 3-(4-Pyridyl)-L-alanine; SITE 20: note = Lysine is chemically modified through conjugation of the epsilon-amino group of the Lysine side chain with (2-[2-(2-Amino-ethoxy))

Target: hGLP-1R (Homo sapiens, UniProt P43220)
Sequence (P43220 24-463): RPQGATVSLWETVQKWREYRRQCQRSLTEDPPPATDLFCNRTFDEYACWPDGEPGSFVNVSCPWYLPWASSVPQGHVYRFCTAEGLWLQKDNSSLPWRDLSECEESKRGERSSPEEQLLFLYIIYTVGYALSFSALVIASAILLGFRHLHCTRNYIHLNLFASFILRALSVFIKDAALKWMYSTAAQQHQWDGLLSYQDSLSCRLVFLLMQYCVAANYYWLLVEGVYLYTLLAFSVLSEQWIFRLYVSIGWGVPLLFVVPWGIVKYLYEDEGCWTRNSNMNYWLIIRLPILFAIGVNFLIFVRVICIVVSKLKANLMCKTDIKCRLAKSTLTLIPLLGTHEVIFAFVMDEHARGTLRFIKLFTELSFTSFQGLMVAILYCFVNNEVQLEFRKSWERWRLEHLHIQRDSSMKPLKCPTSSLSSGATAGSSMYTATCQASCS
Test: cell-based or functional assay

Row | Relative cAMP EC50 [nM] | cAMP Rel EC50 (1% HSA) [nM] | cAMP Rel EC50, nM (1% HSA) [nM] | Binder
1 | 2.56 | 523 |  | Y[Aib]QGTFTSDYSK[αMeL]LDKKAQQAFIEYLLAGGPSSGEPPPSGE-NH2 (not fully specified (residue 17)) [Example 344]
2 | 1.31 | 178 |  | B1
3 | 0.776 |  | 360 | Y[Aib]QGT[αMePhe(2-F)]TSD[Phe(4-CN)]SILLDKQAQKAFIEYLLEGGPSSGEPPPSAG-NH2 (not fully specified (residue 20)) [Example 350]
4 | 0.461 | 150 |  | Y[Aib]QGTFTSDYSI[αMeL]LDKQAAKQFVEWLIA[Aib]GPSSGEPPPGSG-NH2 (not fully specified (residue 20)) [Example 335]
5 | 0.346 |  | 136 | Y[Aib]QGT[αMePhe(2-F)]TSDYSILLDKQAAKEFIEYLIEGGPSSGEPPPSEG-NH2 (not fully specified (residue 20)) [Example 348]
6 | 0.634 |  | 222 | Y[Aib]QGT[αMePhe(2-F)]TSD[Phe(4-CN)]SILLDKQAQKAFIQYLLEGGPSSGEPPPSEG-NH2 (not fully specified (residue 20)) [Example 353]
7 | 0.686 | 272 |  | Y[Aib]QGTFTSDYSK[αMeL]LDKKAQQAFIEYLIAGGPSSGEPPPSGD-NH2 (not fully specified (residue 17)) [Example 337]
8 | 0.705 | 182 |  | Y[Aib]QGTFTSDYSI[αMeL]LDKQAAK([AEEA-AEEA-γGlu-C20 diacid])QFVEWLIA[Aib]GPSSGEPPPGEG-NH2 [Example 333]
9 | 0.798 |  | 254 | B2
10 | 0.921 | 227 |  | Y[Aib]QGTFTSDYSI[αMeL]LDKQAAKQFVEWLIA[Aib]GPSSGEPPPGTG-NH2 (not fully specified (residue 20)) [Example 336]
11 | 1.24 | 298 |  | Y[Aib]QGTFTSDYSI[αMeL]LDKQAAK([AEEA-AEEA-γGlu-C20 diacid])QFVEWLIAGGPSSGEPPPAEG-NH2 [Example 332]
12 | 0.555 |  | 218 | Y[Aib]QGTFTSDYSI[αMeL]LDKQAAKQFIEYLIA[Aib]GPSSGEPPPSEG-NH2 (not fully specified (residue 20)) [Example 349]

Target: T1, human GIP receptor (human)
Test: cell-based or functional assay

Row | Relative cAMP EC50 [nM] | cAMP Rel EC50 (1% HSA) [nM] | cAMP Rel EC50, nM (1% HSA) [nM] | Binder
13 | 0.406 | 70.7 |  | Y[Aib]QGTFTSDYSK[αMeL]LDKKAQQAFIEYLLAGGPSSGEPPPSGE-NH2 (not fully specified (residue 17)) [Example 344]
14 | 0.184 | 16.7 |  | B1
15 | 0.106 |  | 33.6 | Y[Aib]QGT[αMePhe(2-F)]TSD[Phe(4-CN)]SILLDKQAQKAFIEYLLEGGPSSGEPPPSAG-NH2 (not fully specified (residue 20)) [Example 350]
16 | 0.292 | 46.7 |  | Y[Aib]QGTFTSDYSI[αMeL]LDKQAAKQFVEWLIA[Aib]GPSSGEPPPGSG-NH2 (not fully specified (residue 20)) [Example 335]
17 | 0.127 |  | 36.4 | Y[Aib]QGT[αMePhe(2-F)]TSDYSILLDKQAAKEFIEYLIEGGPSSGEPPPSEG-NH2 (not fully specified (residue 20)) [Example 348]
18 | 0.127 |  | 53.7 | Y[Aib]QGT[αMePhe(2-F)]TSD[Phe(4-CN)]SILLDKQAQKAFIQYLLEGGPSSGEPPPSEG-NH2 (not fully specified (residue 20)) [Example 353]
19 | 0.332 | 99.1 |  | Y[Aib]QGTFTSDYSK[αMeL]LDKKAQQAFIEYLIAGGPSSGEPPPSGD-NH2 (not fully specified (residue 17)) [Example 337]
20 | 0.265 | 36.3 |  | Y[Aib]QGTFTSDYSI[αMeL]LDKQAAK([AEEA-AEEA-γGlu-C20 diacid])QFVEWLIA[Aib]GPSSGEPPPGEG-NH2 [Example 333]
21 | 0.0634 |  | 17.3 | B2
22 | 0.306 | 64.4 |  | Y[Aib]QGTFTSDYSI[αMeL]LDKQAAKQFVEWLIA[Aib]GPSSGEPPPGTG-NH2 (not fully specified (residue 20)) [Example 336]
23 | 0.413 | 78.2 |  | Y[Aib]QGTFTSDYSI[αMeL]LDKQAAK([AEEA-AEEA-γGlu-C20 diacid])QFVEWLIAGGPSSGEPPPAEG-NH2 [Example 332]
24 | 0.152 |  | 52.6 | Y[Aib]QGTFTSDYSI[αMeL]LDKQAAKQFIEYLIA[Aib]GPSSGEPPPSEG-NH2 (not fully specified (residue 20)) [Example 349]

Target: human glucagon receptor (human) (UniProt P47871)
Sequence (P47871 26-477): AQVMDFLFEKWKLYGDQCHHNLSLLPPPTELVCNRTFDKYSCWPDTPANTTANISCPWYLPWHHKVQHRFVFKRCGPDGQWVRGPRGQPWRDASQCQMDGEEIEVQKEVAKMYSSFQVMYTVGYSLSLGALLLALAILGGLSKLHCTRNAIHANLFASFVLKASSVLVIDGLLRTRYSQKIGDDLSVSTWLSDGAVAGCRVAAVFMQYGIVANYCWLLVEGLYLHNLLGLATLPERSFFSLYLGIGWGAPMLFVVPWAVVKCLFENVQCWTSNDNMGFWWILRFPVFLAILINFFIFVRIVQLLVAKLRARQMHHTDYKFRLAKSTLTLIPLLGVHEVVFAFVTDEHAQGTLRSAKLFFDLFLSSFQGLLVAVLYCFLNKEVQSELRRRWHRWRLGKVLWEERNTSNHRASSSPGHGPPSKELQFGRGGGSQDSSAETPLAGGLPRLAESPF
Test: cell-based or functional assay

Row | Relative cAMP EC50 [nM] | cAMP Rel EC50 (1% HSA) [nM] | cAMP Rel EC50, nM (1% HSA) [nM] | Binder
25 | 9.05 | 1440 |  | Y[Aib]QGTFTSDYSK[αMeL]LDKKAQQAFIEYLLAGGPSSGEPPPSGE-NH2 (not fully specified (residue 17)) [Example 344]
26 | 6.83 | 475 |  | B1
27 | 10.4 |  | 3760 | Y[Aib]QGT[αMePhe(2-F)]TSD[Phe(4-CN)]SILLDKQAQKAFIEYLLEGGPSSGEPPPSAG-NH2 (not fully specified (residue 20)) [Example 350]
28 | 6.11 | 1410 |  | Y[Aib]QGTFTSDYSI[αMeL]LDKQAAKQFVEWLIA[Aib]GPSSGEPPPGSG-NH2 (not fully specified (residue 20)) [Example 335]
29 | 3.9 |  | 1250 | Y[Aib]QGT[αMePhe(2-F)]TSDYSILLDKQAAKEFIEYLIEGGPSSGEPPPSEG-NH2 (not fully specified (residue 20)) [Example 348]
30 | 11 |  | 3080 | Y[Aib]QGT[αMePhe(2-F)]TSD[Phe(4-CN)]SILLDKQAQKAFIQYLLEGGPSSGEPPPSEG-NH2 (not fully specified (residue 20)) [Example 353]
31 | 5.95 | 2950 |  | Y[Aib]QGTFTSDYSK[αMeL]LDKKAQQAFIEYLIAGGPSSGEPPPSGD-NH2 (not fully specified (residue 17)) [Example 337]
32 | 7.09 | 1410 |  | Y[Aib]QGTFTSDYSI[αMeL]LDKQAAK([AEEA-AEEA-γGlu-C20 diacid])QFVEWLIA[Aib]GPSSGEPPPGEG-NH2 [Example 333]
33 | 8.88 |  | 3650 | B2
34 | 7.05 | 1740 |  | Y[Aib]QGTFTSDYSI[αMeL]LDKQAAKQFVEWLIA[Aib]GPSSGEPPPGTG-NH2 (not fully specified (residue 20)) [Example 336]
35 | 11.8 | 3340 |  | Y[Aib]QGTFTSDYSI[αMeL]LDKQAAK([AEEA-AEEA-γGlu-C20 diacid])QFVEWLIAGGPSSGEPPPAEG-NH2 [Example 332]
36 | 5.12 |  | 2280 | Y[Aib]QGTFTSDYSI[αMeL]LDKQAAKQFIEYLIA[Aib]GPSSGEPPPSEG-NH2 (not fully specified (residue 20)) [Example 349]
